Laboratory results taken from the supplement of paper PMC10567573.
± gives the standard deviation.

Experiment: protein stability index of a GFP-peptide fusion (GPS, HEK-293T) (PSI 1-6); higher = more stable
Conditions: c terminus: a fixed tail appended
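Also: 24-mer peptide tiles fused after GFP, lentivirally expressed, FACS-sorted into six equal bins by GFP/DsRed ratio, decoded by Illumina sequencing, PSI is the read-weighted mean bin number.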

Sequence | protein stability index (treatment: DMSO) | protein stability index (treatment: MLN4924 1 uM, 8 h)
FSGGKSGGNKKSDGVKESSESTNT [CAMK2A] | 5.25 ± 0.2 | 5.36 ± 0.34
VQAWPFTCLPLGVLMKGQHLHLET [PRAME] | 2.58 ± 0.3 | 2.82 ± 0.39
QKKIGAYDQQIWEKSIEQTQIKGL [PHTF1] | 3.76 ± 0.12 | 3.73 ± 0.22
HVKMMLSGVCLFAVFIALLPILGH [PTGFR] | 2.97 ± 0.83 | 2.79 ± 0.78
ESGVHGALLALDENFDHNTLALIL [PPFIA4] | 2.75 ± 0.17 | 2.96 ± 0.27
MRRGAPQDQELVGPGPPGRGSRGA [MOSPD3] | 5.31 ± 0.44 | 5 ± 0.28
VRGEDSGRKPERRRLKTTRLKEYT [DAPK3] | 3.97 ± 0.45 | 4.51 ± 0.17
CKRNFVAVYDGSSSVEDLKAKFCS [NETO1] | 2.78 ± 0.39 | 2.9 ± 0.36
DVAVTVDRDRFMDEFFEQVEEIRG [STX1A] | 4.35 ± 0.39 | 4.49 ± 0.25
GFEFSVPFTEMKLRPRNFRSPAGG [TNXB] |  | 3.66 ± 0.66
TRAPQRAHEVLQELRDISSMAMEY [FBXO28] | 3.44 ± 0.11 | 3.48 ± 0.3
AVHSGTPVTNNLLEKCKTLVSQSN [SPACA9] | 3.76 ± 0.42 | 3.78 ± 0.39
TRRAQADLAYQLQVAKTKQQIEEQ [FLOT1] | 4.82 ± 0.19 | 4.8 ± 0.2
GSFHGPGHISLRRENSSDSPKELK [DLC1] | 4.99 ± 0.39 | 5.09 ± 0.41
LGPCVVGYGIYYFIYSTWKGRTIY [SAT2] | 2.97 ± 0.28 | 2.97 ± 0.51
RLDLAAVTLRRGLRSRASRCRPRS [FAM189A2] | 3.7 ± 0.15 | 3.89 ± 0.32
LLGRERDRVQVERDGLAEDLAALK [PRPH] | 4.2 ± 0.26 | 4.37 ± 0.18
DFQGRILSVDPEEEREEGPPRIPQ [RHOBTB1] | 5.29 ± 0.31 | 5.22 ± 0.22
GADPDSRDFDNNTPLHIAAQNNCP [FEM1A] | 4.96 ± 0.39 | 5.18 ± 0.88
DALRNLKCGSGARGGDGEVASAPL [TRADD] | 4.15 ± 0.38 | 4.05 ± 0.3

Sequence | protein stability index (treatment: DMSO) | protein stability index (treatment: MLN4924 1 uM, 8 h)
ISIPITGDTLRTFSLVLVLDLSKP [DYNC2LI1] | 2.69 ± 0.62 | 2.865 ± 0.02
GPAPPPLPPALVPAGGLAPGGGRG [WAS] | 5.09 ± 0.13 | 5.09 ± 0.18
YHCPGSPDHQVPYGHDYPRAAYQQ [TRAF3IP2] | 3.13 ± 0.45 | 3.5 ± 0.28
ESSSRGEAGAPGEEDIQGPTKADT [CHGB] | 5.64 ± 0.29 | 5.43 ± 0.32
ALSEILRIGKRPDLLTFVQNLCKG [NEUROD6] | 2.49 ± 0.46 | 2.29 ± 0.21
QLWGQKKKNSNMTYEKLSRAMRYY [ELF3] | 2.29 ± 0.042 | 2.32 ± 0.25
CEVMQEIVDQVLEEDFDSEQLSVL [INTS3] | 5.06 ± 0.14 | 5.16 ± 0.12
TMLIVHHRTHTGERPYGCDECEKA [ZNF649] | 3.75 ± 0.32 | 3.7 ± 0.49
DNARLAADDFRTKYEHELALRQTV [KRT16] | 4.01 ± 0.17 | 4.11 ± 0.26
ERQEEQSAAIHISETLEQKPHFES [EPB41L3] | 5.43 ± 0.15 | 5.38 ± 0.28
EKINKIKWLPQQNAAHSLLSTNDK [PPP2R2C] | 4.07 ± 0.19 | 4.15 ± 0.11
LFGDAFAASPGEAPAASEGAAAPA [SNAP91] | 5.07 ± 0.3 | 5.15 ± 0.15
RIHTEEKPYKCQQCDKRFRWSSDL [ZNF75A] | 3 ± 0.2 | 2.94 ± 0.091
VRVNDGGGSHPSRPNSRHTPSFSG [VDR] | 3.72 ± 0.14 | 3.86 ± 0.19
FNNGEYAEAEALYSAYIRRCACAA [TTC32] | 2.39 ± 0.19 | 2.64 ± 0.46
KCHLWTAMDLGFFVVMGVIGGLLG [CLCN6] | 3.14 ± 0.38 | 3 ± 0.24
LETMARNEVIADINCKGRSKSNLG [OSBPL1A] | 4.46 ± 0.39 | 4.38 ± 0.39
VLALRNMKNLLFSEMWDIFLVRLL [MFSD9] | 2.13 ± 0.44 | 2.14 ± 0.49
ERMWAAIQSWDINSRRNINYRSFE [ZER1] | 2.28 ± 0.35 | 2.26 ± 0.25
SCLKAIVLFTSDACGLSDVAHVES [NR2F2] | 2.43 ± 0.7 | 2.08 ± 0.36

Sequence | protein stability index (treatment: DMSO) | protein stability index (treatment: MLN4924 1 uM, 8 h)
FQNFSLHDPLYGKLFSTYLRPPHT [LPCAT4] | 2.27 ± 0.36 | 2.12 ± 0.19
TEDLCEKPDDEVKETAHDLDVKSP [RIPK4] | 5.8 ± 0.26 | 5.62 ± 0.27
KTLAVKNEEIQSFIYSLKQMLLNV [FSD1] | 2.52 ± 0.37 | 2.14 ± 0.21
TENRGNEKEFMKGNQLISNNIKFK [CLCN6] | 4.43 ± 0.28 | 4.52 ± 0.11
FECAWNGSDSVIMTGAYNNFFRMF [PPP2R2C] | 2.5 ± 0.35 | 2.35 ± 0.6
RWNKVKMVVSREEVELAYQEAMFN [SEPHS2] | 2.62 ± 0.21 | 2.66 ± 0.29
SARDCKFTGNFFYNYMMGIEFNPR [DHCR7] | 2.24 ± 0.44 | 2.07 ± 0.59
DKLGELSDKIGSTIDDTISKFRRK [CLINT1] | 3.32 ± 0.58 | 3.4 ± 0.39
CGTPNYLSPEVLNKQGHGCESDIW [PLK2] | 2.78 ± 0.28 | 2.83 ± 0.28
EYNYDWWEKKPFSEDVNWGYEKRN [CHGB] | 3.17 ± 0.21 | 3.19 ± 0.23
QGLEQFINKIAGHPLAQNERCLHM [SNX12] | 2.27 ± 0.13 | 2.41 ± 0.21
FTFLGKKCVTMSSAVVQLYAADRN [WASL] | 2.33 ± 0.34 | 2.43 ± 0.36
PNSTFPIDKSMTVVLTFITPMLNP [OR4A15] | 2.95 ± 0.38 | 2.97 ± 0.38
DPSSTKPGTLLKTSPSPERSLLLK [TRIM14] | 4.59 ± 0.2 | 4.67 ± 0.21
VFITYSMDTAMEVVKFVNFLLVNG [TRAF3IP2] | 3.39 ± 0.062 | 2.06 ± 0.64
FVADEGICYLPHWMMQNLLLEEGG [UFD1] | 2.36 ± 0.62 | 2.28 ± 0.38
QYYDDEKKTWKILTIMPYNSAHHC [KLHL14] | 2.56 ± 0.43 | 2.59 ± 0.42
KTYHYLYLAMLERFQDGDNILEKE [FEM1B] | 2.03 ± 0.37 | 2.35 ± 0.2
LTQTMHDLAGLGSETPKSQVGTLL [CDC25B] | 3.39 ± 0.42 | 3.62 ± 0.22
